This experiment concerns the target taxol-stabilized microtubules (UniProt Q6B856). Kind of experiment: co-sedimentation.
Sequence of UniProt Q6B856 (Q6B856 whole entry, looked up): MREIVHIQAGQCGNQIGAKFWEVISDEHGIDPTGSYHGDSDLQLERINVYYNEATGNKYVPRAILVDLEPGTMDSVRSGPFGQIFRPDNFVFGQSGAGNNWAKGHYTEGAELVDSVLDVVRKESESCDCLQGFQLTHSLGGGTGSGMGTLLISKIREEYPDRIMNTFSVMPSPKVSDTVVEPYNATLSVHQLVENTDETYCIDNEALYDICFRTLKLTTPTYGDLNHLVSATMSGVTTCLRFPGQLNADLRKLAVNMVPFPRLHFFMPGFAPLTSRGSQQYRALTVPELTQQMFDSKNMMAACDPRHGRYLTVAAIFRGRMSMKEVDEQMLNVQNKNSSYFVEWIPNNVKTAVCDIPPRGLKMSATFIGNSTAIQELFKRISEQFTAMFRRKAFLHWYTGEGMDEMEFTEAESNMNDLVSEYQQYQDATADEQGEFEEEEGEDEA
What is called Kd is the free concentration of one partner at which half of the binding sites on the other are occupied at equilibrium, for simple one-to-one binding. The substance HIS-TAN1-GFP (natural protein) yielded a Kd of 590 nM.

Take “6xHIS-tagged ZmTAN1 (TANGLED1, maize) (natural protein)”: the Kd was found to be 1270 nM.

The substance HIS-TAN1-GFP-Atto488 (natural protein) registered a Kd of 60 nM.

These data come from article doi:10.1101/711796.
